Results from patent WO2020216210A1 (dated 2020).

T1: human EpCAM full-length protein (on MCF-7 and A431 cells) (human, UniProt P16422 24-314)
T1 construct: Endogenous EpCAM on the cell lines MCF-7 and A431 (ATCC); also called CD326; epithelial cell adhesion molecule
T1 sequence: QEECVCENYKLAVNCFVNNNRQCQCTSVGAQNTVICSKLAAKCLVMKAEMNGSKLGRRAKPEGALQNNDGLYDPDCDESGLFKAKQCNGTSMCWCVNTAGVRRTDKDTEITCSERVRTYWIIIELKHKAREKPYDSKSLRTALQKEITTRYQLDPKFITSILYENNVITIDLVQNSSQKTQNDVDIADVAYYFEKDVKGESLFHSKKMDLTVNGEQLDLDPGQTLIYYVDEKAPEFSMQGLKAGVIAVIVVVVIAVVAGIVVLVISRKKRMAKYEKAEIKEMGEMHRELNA

B1: fully human antibody h1905 (antibody, human IgG1, kappa, V domains shown)
VH: QMQLVQSGAEVKKPGASVKVSCKASGYTFTSYDINWVRQATGQGLEWMGWMNPNSGNTGYAQKFQGRVTMTRNTSISTAYMELSSLRSEDTAVYYCARGVVVVVAATRGHYYYYYGMDVWGQGTTVTVSS
VL: DIQMTQSPSSLSASIGDRVSMTCRASQSVTKYLNWYQQTPGKPPKLLIFSASHLQTGVPSRFSGSGSGTDFTLTIDSLQPEDVATYYCQQSYSTPFTFGQGTKVEIKR
notes: Complete antibody VH-CH1-FC/VL-CL built from a phage scFv
B2: fully human antibody h1907 (antibody, human IgG1, kappa, V domains shown)
VH: QVTLKESGPTLVKPTQTLTLTCTFSGFSLSTSGVAVGWIRQPPGKALEWLALIYWDADTRYSPSLKSRLTITKDTSKNQVVLTMTNMDPVDTATYYCAHRPHGSGSYYAFDYWGQGILVTVSS
VL: DIVMTQSPSSLSASVGDRVTISCRASQNIRNYLNWYQHRPGEAPKLLISGVSRLQNGVPSRFSGSGSGTDFTLTIRSLQSEDFATYYCQQSYINWTFGQGTKVEIKR
notes: as for B1

Molecular target: T1, human EpCAM full-length protein (on …)
Experiment: flow cytometry (FACS) on MCF-7 and A431 cells, Alexa Fluor 488 goat anti-human IgG detection

Binder	binding result
B1	binds
B2	binds
